These are literature values, as cited in PMC7866529.

pKd: −log10 of the molar value. Like-named read-outs stand apart in the source and are kept apart here. Some results are limits rather than exact numbers.

The target of series [1] is S100B (Homo sapiens) (UniProt P04271).
Series [2] has the same target. This is another data set of the same source.

In the case of S100B (from UniProt P04271), the pKd in the series with S100B (Homo sapiens) [1] is greater than 9.30. For the substance TRTK12, the pKd in the series with S100B (Homo sapiens) [2] was 6.59.

One may read the pKd as −log10 of the Kd, conventionally taken in molar units.
